{"source": "patent US20230346919A1", "target": "Spike (S) protein of the SARS-CoV-2 clinical isolate, strain 2019 n-CoV/USA_WA1/2020 (SARS-CoV-2 strain 2019 n-CoV/USA_WA1/2020) (UniProt P0DTC2)", "assay": "cell-based or functional assay"}
{"substance": "human ACE2-Fc (hACE2 residues 1-615, HRV-3C site, human IgG1 Fc) (from UniProt Q9BYF1 18-615) (Fc fusion)", "values": [{"measurement": "EC50, inhibition of SARS-CoV-2 infection (FRNT, Vero E6 cells)", "result": 12.6, "unit": "µg/mL"}]}
{"substance": "mAb S309 (antibody)", "values": [{"measurement": "EC50, neutralization of SARS-CoV-2 (FRNT, Vero E6 cells)", "result": 0.081, "unit": "µg/mL"}]}
